Assay results: PMC11213338

Experiments:
[1] = target: γb protein of BSMV, expressed by the virus; test: immunogold labeling with γb antibody, TEM; settings: virions purified from infected N. benthamiana leaves at 5 dpi; n = 13; parent: est. 48; read off a plot
GST-γb = test: GST pull-down; settings: scale: relative anti-His band intensity
[2] = target: BSMV virions (barley stripe mosaic virus (ND18 strain)); test: immunogold labelling of purified virions (TEM); virions purified from infected leaves, adsorbed onto nickel grids, rabbit antiserum against the CRP 1:100 in BL buffer 2 h at room temperature, goat anti-rabbit 10 nm gold, TEM at 80 kV; also after 0.02 mM EDTA at 4°C for 12 h (fewer gold particles)
BSMV virions = test: immunogold labeling with γb antibody, TEM; settings: virions purified from infected N. benthamiana leaves at 5 dpi; n = 13; parent: est. 48; read off a plot
CP-His = CP-His (UniProt P04866); test: GST pull-down; settings: scale: relative anti-His band intensity
[3] = target: γb-GFP-His (barley stripe mosaic virus (ND18 strain)); test: MST; γb protein with 5 μM Zn^2+ in the buffer held constant, CP protein added as ligand; Monolith NT.115
[4] = target: γb-GFP-His (barley stripe mosaic virus (ND18 strain)); test: MST; γb-GFP-His held constant (10 μM), CP-His titrated from 20 μM; PBS with 0.1% Tween 20, 25°C, 20% LED-power, 40% MST-power, Monolith NT.115; no Zn^2+ added
[5] = target: γb-GFP-His (barley stripe mosaic virus (ND18 strain)); test: as above; remark: listed apart in the source
[6] = target: GST-γb (barley stripe mosaic virus (ND18 strain)); test: pull-down; GST pull-down: purified GST-tag protein with His-tag protein in 50 mM Tris-HCl pH 6.8, 500 mM NaCl, 1.5% glycerol, 0.6% Triton-X 100, 0.1% Tween 20, 3 h at 4°C; with or without 10 μg RNaseA, Zn^2+ 2-200 μM, 20 μM other divalent cations, or EDTA (200 μM in Fig 4D and 4E); blots with anti-GST or anti-His

BSMV virions H13A
response [1]: 3%

CP-His (from UniProt P04866) H13A
response (GST-γb; EDTA (200 μM), parent: 0.05): 0.04
response (GST-γb; no EDTA, parent: 1.00): 0.11

γb protein of BSMV, expressed by the virus (natural protein)
percent of virions labelled with gold particles (γb antibody) [2]: 50.9%

γb protein of BSMV, expressed by the virus H85A
response (BSMV virions): 8%

GST-γb H85A
response (CP-His; EDTA (200 μM), parent: 0.20): 0.23
response (CP-His; no EDTA, parent: 1.00): 0.21

B1: CP-His (natural protein)
chain: MPNVSLTAKGGGHYIEDQWDTQVVEAGVFDDWWVHVEAWNKFLDNLRGINFSVASSRSQVAEYLAALDRDLPADVDRRFAGARGQIGSPNYLPAPKFFRLDKRTIAELTRLSRLTDQPHNNRDIELNRAKRATTNPSPPAQAPSENLTLRDVQPLKDSALHYQYVLIDLQSARLPVYTRKTFERELALEWIIPDAEEA
Kd [3]: 150 nM
Kd [4]: 460 nM
Kd [5]: 630 nM
fold reduction of the pull-down with 200 μM EDTA [6]: 5 fold
